{"source": "paper PMC10288592", "about": "“A linker protein from a red-type pyrenoid phase separates with Rubisco via oligomerizing sticker motifs” (Proceedings of the National Academy of Sciences of the …, 2023)", "binders": {"B1": {"name": "Phaeodactylum tricornutum Rubisco (L8S8 holoenzyme) (complex)", "chain 1": "MSQSVSERTRIKSDRYESGVIPYAKMGYWDAAYAVKNTDVLALFRITPQPGVDPVEAAAAVAGESSTATWTVVWTDLLTACDRYRAKAYRVDPVPNTTDQYFAFIAYECDLFEEGSLANLTASIIGNVFGFKAVSALRLEDMRIPHSYLKTFQGPATGVIVERERLNKYGIPLLGATVKPKLGLSGKNYGRVVYEGLKGGLDFLKDDENINSQPFMRWRERFLYCMEGINRASAATGETKGSYLNITAGTMEEVYKRAEYAKTVGSIVVMIDLVMGYTAIQSAAIWARDNDLILHLHRAGNSTYARQKNHGINFRVICKWMRMCGVDHIHAGTVVGKLEGDPLMIKGFYDTLLLTHLNVNLPYGIFFEMTWASLRKCMPVASGGIHCGQMHQLVHYLGDDVVLQFGGGTIGHPDGIQAGATANRVALEAMILARNEGADYFNSDIGPQILRNAAKTCGPLQTALDLWKDISFNYTSTDTSDFSVTPTANV", "chain 2": "MRLTQGCFSFLPDLTDQQIEKQIAYCITKGWAMNVEWTDDPHPRNSYWELWGLPLFDVKDPASVMFELREARKSCAAGYIRINAFNAAYGTESCVMSFIVNRPSNEPGFYLERQELEGRRIAYTTKSYSVQANPEGGRY", "notes": "Rubisco large subunit (LSU) of Phaeodactylum tricornutum, Form ID; Rubisco small subunit (SSU) of Phaeodactylum tricornutum, Form ID; For microscopy spiked with 0.3% or 0.6% atto-594-labeled PtRubisco; also called PtRubisco; diatom Rubisco; source: purified directly from diatoms (P. tricornutum); endogenous, soluble algal lysate (immunoprecipitation); copies: 8 + 8"}}, "target": "T1, PYCO1 (pyrenoid component 1), recombinant, residues 31 to 592 (Phaeodactylum tricornutum)", "T1 chain": "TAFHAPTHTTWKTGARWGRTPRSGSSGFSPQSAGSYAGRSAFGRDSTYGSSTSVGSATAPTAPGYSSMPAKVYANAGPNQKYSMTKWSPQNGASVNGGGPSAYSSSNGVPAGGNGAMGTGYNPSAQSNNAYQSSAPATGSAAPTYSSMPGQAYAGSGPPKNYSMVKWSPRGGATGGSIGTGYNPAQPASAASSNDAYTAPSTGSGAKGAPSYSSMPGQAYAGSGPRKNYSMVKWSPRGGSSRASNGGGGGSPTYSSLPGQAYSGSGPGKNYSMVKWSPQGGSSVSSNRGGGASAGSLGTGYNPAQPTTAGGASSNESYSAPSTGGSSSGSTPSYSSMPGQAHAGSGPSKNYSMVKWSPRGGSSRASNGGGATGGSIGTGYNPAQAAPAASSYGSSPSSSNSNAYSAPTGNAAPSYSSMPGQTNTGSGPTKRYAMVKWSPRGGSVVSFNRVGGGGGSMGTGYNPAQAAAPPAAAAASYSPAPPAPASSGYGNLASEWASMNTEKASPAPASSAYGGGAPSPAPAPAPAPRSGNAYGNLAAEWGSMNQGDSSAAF", "experiment": "co-sedimentation; heterotypic: Rubisco and PYCO1 (or variant) mixed at various ratios, 20 mM Tris-HCl pH 8.0, 150 mM NaCl; condensates sedimented and analysed", "settings": "both partners purified"}
{"binder": "B1", "values": [{"measurement": "stoichiometry N", "result": "3 Rubisco (L8S8) per PYCO1"}]}
